B1: anti-mCD19 (clone 1D3) IgG (antibody, V domains shown)
VH: EVQLQQSGAELVRPGTSVKLSCKVSGDTITFYYMHFVKQRPGQGLEWIGRIDPEDESTKYSEKFKNKATLTADTSSNTAYLKLSSLTSEDTATYFCIYGGYYFDYWGQGVMVTVSS
VL: DIQMTQSPASLSTSLGETVTIQCQASEDIYSGLAWYQQKPGKSPQLLIYGASDLQDGVPSRFSGSGSGTQYSLKITSMQTEDEGVYFCQQGLTYPRTFGGGTKLELK
notes: Anti-mouse CD19 IgG; biotinylated for sorting; also called 1D3 antibody; anti-mCD19 IgG
B2: 1D3 Mimotope Multimer H1 + C11 SKLKGKSGPEFHWFINVPPF (peptide)
peptide: SKLKGKSGPEFHWFINVPPF
notes: Chemically synthesized 20 amino acid fusion of two mimotopes; also called fusion mimotope
B6: 1D3 Mimotope Multimer H1 + E2 SKLKGKSGPEIRVLMSRVFA (peptide)
peptide: SKLKGKSGPEIRVLMSRVFA
notes: as for B2

Assays:
[1] = biological target: T1, 1D3 Mimotope (H1) SKLKGKSGPE; assay: ELISA, OD(450nm) against the concentration of 1D3 IgG; label under the circle curve (H1)
T1 peptide: SKLKGKSGPE

[2] = biological target: B2; assay: ELISA, OD(450nm) against the concentration of 1D3 IgG; label beside the square curve (H1 + C11)
Experimental: (§1) Specifically, a library was generated using nested PCR and the primers in Table 1. […] For each round of enrichment, the top 0.5-1% of yeast were sorted. Following enrichment, isolated clones were subjected to Sanger sequencing. […] To further characterize the mimotope affinity, absolute binding affinity was measured by ELISA. Specifically, three mimotopes were selected for screening (Table 8). Of the selected sequences, two fusion mimotopes were chemically synthesized. Specifically, two mimotopes were fused to form a 20 amino acid peptide (Table 9).

[3] = biological target: B6; assay: ELISA, OD(450nm) against the concentration of 1D3 IgG; label beside the triangle curve (H1 + E2)
Experimental: as §1

[4] = biological target: B1; assay: yeast display selection with 1D3 IgG
Experimental: as §1

[5] = biological target: B1; assay: ELISA with anti-mCD19 IgG (1D3)
Experimental: as §1

FMC63 IgG = biological target: T2, FMC63 IgG; assay: flow cytometry of yeast-displayed mutant
T2 construct: Murine monoclonal antibody to human CD19; also called FMC63 IgG antibody; biotinylated FMC63 IgG
Experimental: Specifically, a representative mimotope, […] […] To generate mutations, two complementary oligos with the codon replaced at the desired site were denatured at 95° C. and annealed by slow cooling to 25° C. (decreasing by 0.5° C./second). The annealed oligos were treated with T4 PNK (T4 Polynucleotide Kinase) to add a terminal phosphate, and then ligated into digested pCT-CON2 vector. Positive clones having the correct oligo inserted were tested and transformed into competent EBY100 yeast cells.

[6] = biological target: T3, FMC63 mimotope K-C2 RICPWNCKELPSPPRIFGNR; assay: flow cytometry of yeast clones titrated with biotinylated FMC63 scFv and streptavidin-PE, MFI (geometric mean); no unit on the concentration axis
T3 peptide: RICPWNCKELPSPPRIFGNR

[7] = biological target: T4, FMC63 mimotope K-A3 RICPWNCKELPTPYMMFDM; assay: as above
T4 peptide: RICPWNCKELPTPYMMFDM

[8] = biological target: T5, FMC63 mimotope K-A11 RICPWNCKELYWLPDE; assay: as above
T5 peptide: RICPWNCKELYWLPDE

[9] = biological target: T6, FMC63 mimotope K-B5 PPPRICPWNCKELPLDWPW; assay: as above
T6 peptide: PPPRICPWNCKELPLDWPW

[10] = biological target: T7, FMC63 mimotope K-F5 QFQRICPWNCKELYWLPDQ; assay: as above
T7 peptide: QFQRICPWNCKELYWLPDQ

[11] = biological target: T8, FMC63 mimotope K-A1 PRKHSGRICPWNCKELDNPPFIFGNR (not fully specified); assay: as above
T8 peptide: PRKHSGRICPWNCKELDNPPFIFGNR

[12] = biological target: T9, FMC63 mimotope K-D11 AGTRICPWNCKELYWLPDE; assay: as above
T9 peptide: AGTRICPWNCKELYWLPDE

[13] = biological target: T10, FMC63 mimotope K-A10 AKRRERDYVGRICPWNCKELHPDTRHRIPV; assay: as above
T10 peptide: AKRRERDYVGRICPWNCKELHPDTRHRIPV

[14] = biological target: T11, FMC63 mimotope K-A5 PLSRICPWNCKELYWLPQR; assay: as above
T11 peptide: PLSRICPWNCKELYWLPQR

[15] = biological target: T12, FMC63 Mimotope (H1) RVCPWSCMPI; assay: flow cytometry of yeast clones titrated with biotinylated FMC63 scFv monomer, MFI (geometric mean); axis without unit, nM by the legend paragraph 211
T12 construct: Not the 1D3 mimotope that is also called H1
T12 peptide: RVCPWSCMPI

[16] = biological target: T13, FMC63 Mimotope (H8) RICPWACVEL; assay: as above
T13 peptide: RICPWACVEL

[17] = biological target: T14, FMC63 Mimotope (G9) RLCPWSCREL; assay: as above
T14 construct: Parent of the alanine scan
T14 peptide: RLCPWSCREL

[18] = biological target: T15, FMC63 Mimotope (A12) RRCPWSCKKQ; assay: as above
T15 peptide: RRCPWSCKKQ

[19] = biological target: T16, FMC63 Mimotope (C7) RLCPWACQEQ; assay: as above
T16 peptide: RLCPWACQEQ

[20] = biological target: T17, FMC63 Mimotope (E6) RLCPWSCVPI; assay: as above
T17 peptide: RLCPWSCVPI

[21] = biological target: T18, FMC63 Mimotope (F12) RICPWNCKEL; assay: as above
T18 construct: also called F12 mimotope
T18 peptide: RICPWNCKEL

[22] = biological target: T19, FMC63 Mimotope (H11) RICPWSCREL; assay: as above
T19 peptide: RICPWSCREL

[23] = biological target: T20, FMC63 Mimotope (F8) RLCPWDCREL; assay: as above
T20 peptide: RLCPWDCREL

[24] = biological target: T21, FMC63 Mimotope (C5) RMCPWSCYEL; assay: as above
T21 peptide: RMCPWSCYEL

[25] = biological target: T22, FMC63 Mimotope (G11) RLCPWNCREL; assay: as above
T22 peptide: RLCPWNCREL

## B1
[1]
  Kd: 190 nM
[2]
  Kd: 102 nM
[3]
  Kd: 6.7 nM

## IRVLMSRVFA [1D3 Mimotope (E2) IRVLMSRVFA]
[4]
  binding result: binds

## B2
[5]
  binding result: binds

B3: FMC63 Mimotope Mutant RLCPWSACREL (peptide)
peptide: RLCPWSACREL
notes: also called G9 with one alanine inserted between the cysteines
FMC63 IgG
  binding result: no binding (tested: 5 µM FMC63 IgG)

B4: FMC63 scFv (scFv)
scFv: DIQMTQTTSSLSASLGDRVTISCRASQDISKYLNWYQQKPDGTVKLLIYHTSRLHSGVPSRFSGSGSGTDYSLTISNLEQEDIATYFCQQGNTLPYTFGGGTKLEITGGGGSGGGGSGGGGSEVKLQESGPGLVAPSQSLSVTCTVSGVSLPDYGVSWIRQPPRKGLEWLGVIWGSETTYYNSALKSRLTIIKDNSKSQVFLKMNSLQTDDTAIYYCAKHYYYGGSYAMDYWGQGTSVTVSS
modifications: biotinylated
notes: Whole scFv entry (VL-(G4S)3-VH); also called FMC63-scFv monomer; biotinylated FMC63 scFv
[6]
  binding result: binds
[7]
  binding result: binds
[8]
  binding result: binds
[9]
  binding result: binds
[10]
  binding result: binds
[11]
  binding result: binds
[12]
  binding result: binds
[13]
  binding result: binds
[14]
  binding result: binds
[15]
  binding result: binds
[16]
  binding result: binds
[17]
  binding result: binds
[18]
  binding result: binds
[19]
  binding result: binds
[20]
  binding result: binds
[21]
  binding result: binds
[22]
  binding result: binds
[23]
  binding result: binds
[24]
  binding result: binds
[25]
  binding result: binds

## FHWFINVPPF [1D3 Mimotope (C11) FHWFINVPPF]
[4]
  binding result: binds

B5: FMC63 Mimotope Mutant RLCPWSAACREL (peptide)
peptide: RLCPWSAACREL
notes: also called G9 with two alanines inserted between the cysteines
FMC63 IgG
  binding result: no binding (tested: 5 µM FMC63 IgG)

## B6
[5]
  binding result: binds
